Measured values: paper PMC11272584 (Nature Metabolism, 2024)
Positions count from the first letter of the chain named.

Experiments:
GIPR E461* (human) = target: T1, GIPR E461* (human) (UniProt P48546)
T1 sequence: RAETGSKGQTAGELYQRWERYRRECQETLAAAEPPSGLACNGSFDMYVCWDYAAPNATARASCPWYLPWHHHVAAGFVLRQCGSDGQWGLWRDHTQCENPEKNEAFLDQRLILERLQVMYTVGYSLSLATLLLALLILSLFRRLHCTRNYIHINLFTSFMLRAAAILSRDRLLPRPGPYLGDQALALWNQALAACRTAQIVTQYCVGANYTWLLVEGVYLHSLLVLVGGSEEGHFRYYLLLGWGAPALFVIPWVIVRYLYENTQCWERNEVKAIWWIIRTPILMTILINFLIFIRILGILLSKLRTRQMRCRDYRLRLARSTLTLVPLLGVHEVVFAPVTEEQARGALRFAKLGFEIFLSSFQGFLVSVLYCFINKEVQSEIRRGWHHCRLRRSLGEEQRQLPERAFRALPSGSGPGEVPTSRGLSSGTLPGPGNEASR

GIPR H166Y (human) = target: T2, GIPR H166Y (human) (UniProt P48546)
T2 sequence: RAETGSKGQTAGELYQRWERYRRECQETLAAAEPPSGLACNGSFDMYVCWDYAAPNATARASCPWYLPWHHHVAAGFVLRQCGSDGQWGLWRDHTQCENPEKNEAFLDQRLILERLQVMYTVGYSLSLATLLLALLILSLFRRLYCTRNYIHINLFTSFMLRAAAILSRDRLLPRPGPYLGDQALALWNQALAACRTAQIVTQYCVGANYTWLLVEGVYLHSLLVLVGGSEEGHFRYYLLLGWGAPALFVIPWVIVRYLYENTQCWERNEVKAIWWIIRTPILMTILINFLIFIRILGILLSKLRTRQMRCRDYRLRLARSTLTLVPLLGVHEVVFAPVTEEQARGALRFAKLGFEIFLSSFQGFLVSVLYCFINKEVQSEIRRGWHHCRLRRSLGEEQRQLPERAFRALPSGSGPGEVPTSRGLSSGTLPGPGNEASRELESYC

GIPR K397N (human) = target: T3, GIPR K397N (human) (UniProt P48546)
T3 sequence: T2 sequence with Y145H, K376N

GIPR R38L (human) = target: T4, GIPR R38L (human) (UniProt P48546)
T4 sequence: T2 sequence with R17L, Y145H

GIPR T116R (human) = target: T5, GIPR T116R (human) (UniProt P48546)
T5 sequence: T2 sequence with T95R, Y145H

GIPR V99I (human) = target: T6, GIPR V99I (human) (UniProt P48546)
T6 sequence: T2 sequence with V78I, Y145H

Substance: β-arrestin 2 (Rluc8-Arrestin-3-Sp1) (from UniProt P32121 1-409) (natural protein)
- β-arrestin 2 recruitment (BRET) on stimulation with GIP(1-42): logEC50 (Arrestin) (log M (inferred)) (GIPR E461* (human)): -9.17
- β-arrestin 2 recruitment (BRET) on stimulation with GIP(1-42): logEC50 (Arrestin) (log M (inferred)) (GIPR H166Y (human)): -9.22
- β-arrestin 2 recruitment (BRET) on stimulation with GIP(1-42): logEC50 (Arrestin) (log M (inferred)) (GIPR K397N (human)): -8.9
- β-arrestin 2 recruitment (BRET) on stimulation with GIP(1-42): logEC50 (Arrestin) (log M (inferred)) (GIPR R38L (human)): -9
- β-arrestin 2 recruitment (BRET) on stimulation with GIP(1-42): logEC50 (Arrestin) (log M (inferred)) (GIPR T116R (human)): -8.71
- β-arrestin 2 recruitment (BRET) on stimulation with GIP(1-42): logEC50 (Arrestin) (log M (inferred)) (GIPR V99I (human)): -8.93
